Measurements published in patent US20120191435A1 (SHANGHAI NATIONAL ENGINEERING RESEARCH CENTER OF ANTIBODY …, published 2012).

T1: biotin labeled antigen peptide (a fragment of the CD20 extracellular domain) (human, UniProt P11836 163-187, limits assumed, biotin labeled (position not given))
T1 construct: domain: a fragment of the CD20 extracellular domain; also called short peptide CD20; CD20 antigen
T1 peptide (looked up): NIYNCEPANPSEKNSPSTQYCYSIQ


Assays:
[1] = molecular target: T1, biotin labeled antigen peptide (a …); assay: Biacore SPR, biotin-CD20 peptide on SA chip, antibody in flow
Experimental: (§1) A SA chip was balanced in 50 μl/min of PBS solution for 30 minutes at 25° C. and then activated three times with activation solution of 1M NaCl and 50 mM NaOH, for 1 minute per time. […] Then the chip was balanced in 50 μl/min of PBS solution for 10 minutes. The balanced SA chip was blocked with 0.04% of biotin solution. The antibody was diluted to five concentrations by double dilution. The samples were loaded at the flow rate of 50 μl/min for 75 seconds and dissociated with PBS solution for 10 minutes.

[2] = molecular target: T1, biotin labeled antigen peptide (a …); assay: Biacore SPR, biotin-CD20 peptide on SA chip; ratio against un-mutated C2B8 (WT)
Experimental: as §1

[3] = molecular target: T1, biotin labeled antigen peptide (a …); assay: Biacore SPR, biotin-CD20 peptide on SA chip; ratio against commercially available rituximab
Experimental: as §1

Kd [1]	KdWT/Kdmutant [2]	KdRitu/Kdmutant [3]	Binder
44.1 nM			anti-CD20 chimeric antibody Rituximab (C2B8), un-mutated, expressed in CHO-K1 cells in this filing (antibody, human IgG1, kappa, V domains shown, Whole chimeric IgG1 kappa; also called WT; un-mutated C2B8) VH: QVQLQQPGAELVKPGASVKMSCKASGYTFTSYNMHWVKQTPGRGLEWIGAIYPGNGDTSYNQKFKGKATLTADKSSSTAYMQLSSLTSEDSAVYYCARSTYYGGDWYFNVWGAGTTVTVSA VL: QIVLSQSPAILSASPGEKVTMTCRASSSVSYIHWFQQKPGSSPKPWIYATSNLASGVPVRFSGSGSGTSYSLTISRVEAEDAATYYCQQWTSNPPTFGGGTKLEIKR
	1.84	2.34	C2B8 antibody mutant Rmut6 (H102YT) (antibody, V domains shown) VH: QVQLQQPGAELVKPGASVKMSCKASGYTFTSYNMHWVKQTPGRGLEWIGAIYPGNGDTSYNQKFKGKATLTADKSSSTAYMQLSSLTSEDSAVYYCARSTYTGGDWYFNVWGAGTTVTVSA VL: QIVLSQSPAILSASPGEKVTMTCRASSSVSYIHWFQQKPGSSPKPWIYATSNLASGVPVRFSGSGSGTSYSLTISRVEAEDAATYYCQQWTSNPPTFGGGTKLEIK
	1.85	2.35	C2B8 antibody mutant Rmut5 (H102YS) (antibody, V domains shown) VH: QVQLQQPGAELVKPGASVKMSCKASGYTFTSYNMHWVKQTPGRGLEWIGAIYPGNGDTSYNQKFKGKATLTADKSSSTAYMQLSSLTSEDSAVYYCARSTYSGGDWYFNVWGAGTTVTVSA VL: QIVLSQSPAILSASPGEKVTMTCRASSSVSYIHWFQQKPGSSPKPWIYATSNLASGVPVRFSGSGSGTSYSLTISRVEAEDAATYYCQQWTSNPPTFGGGTKLEIK
	3.96	5.04	C2B8 antibody mutant Rmut7 (H102YK) (antibody, V domains shown) VH: QVQLQQPGAELVKPGASVKMSCKASGYTFTSYNMHWVKQTPGRGLEWIGAIYPGNGDTSYNQKFKGKATLTADKSSSTAYMQLSSLTSEDSAVYYCARSTYKGGDWYFNVWGAGTTVTVSA VL: QIVLSQSPAILSASPGEKVTMTCRASSSVSYIHWFQQKPGSSPKPWIYATSNLASGVPVRFSGSGSGTSYSLTISRVEAEDAATYYCQQWTSNPPTFGGGTKLEIK
	6.08	7.73	C2B8 antibody mutant Rmut3 (H57DE) (antibody, V domains shown) VH: QVQLQQPGAELVKPGASVKMSCKASGYTFTSYNMHWVKQTPGRGLEWIGAIYPGNGETSYNQKFKGKATLTADKSSSTAYMQLSSLTSEDSAVYYCARSTYYGGDWYFNVWGAGTTVTVSA VL: QIVLSQSPAILSASPGEKVTMTCRASSSVSYIHWFQQKPGSSPKPWIYATSNLASGVPVRFSGSGSGTSYSLTISRVEAEDAATYYCQQWTSNPPTFGGGTKLEIK

Continued, binder first:

Binder	Kd [1]	KdWT/Kdmutant [2]	KdRitu/Kdmutant [3]
C2B8 antibody mutant Rmut4 (H102YR) (antibody, V domains shown) VH: QVQLQQPGAELVKPGASVKMSCKASGYTFTSYNMHWVKQTPGRGLEWIGAIYPGNGDTSYNQKFKGKATLTADKSSSTAYMQLSSLTSEDSAVYYCARSTYRGGDWYFNVWGAGTTVTVSA VL: QIVLSQSPAILSASPGEKVTMTCRASSSVSYIHWFQQKPGSSPKPWIYATSNLASGVPVRFSGSGSGTSYSLTISRVEAEDAATYYCQQWTSNPPTFGGGTKLEIK		1.75	2.23
C2B8 antibody mutant Rmut2 (H55NR) (antibody, V domains shown) VH: QVQLQQPGAELVKPGASVKMSCKASGYTFTSYNMHWVKQTPGRGLEWIGAIYPGRGDTSYNQKFKGKATLTADKSSSTAYMQLSSLTSEDSAVYYCARSTYYGGDWYFNVWGAGTTVTVSA VL: QIVLSQSPAILSASPGEKVTMTCRASSSVSYIHWFQQKPGSSPKPWIYATSNLASGVPVRFSGSGSGTSYSLTISRVEAEDAATYYCQQWTSNPPTFGGGTKLEIK		0.61	0.78
C2B8 antibody mutant Rmut1 (H55NE) (antibody, V domains shown) VH: QVQLQQPGAELVKPGASVKMSCKASGYTFTSYNMHWVKQTPGRGLEWIGAIYPGEGDTSYNQKFKGKATLTADKSSSTAYMQLSSLTSEDSAVYYCARSTYYGGDWYFNVWGAGTTVTVSA VL: QIVLSQSPAILSASPGEKVTMTCRASSSVSYIHWFQQKPGSSPKPWIYATSNLASGVPVRFSGSGSGTSYSLTISRVEAEDAATYYCQQWTSNPPTFGGGTKLEIK		0.54	0.69
